Publication PMC6611172 (ACS chemical biology, 2018)
Ends that are not written are not given here.

Tests used:
[1] = target: GAS41 YEATS domain (residues 13–158), His6-tagged, 15N-labeled (human) (UniProt O95619); assay: NMR titration
[2] = target: full-length GAS41, Avi-tagged, mono-biotinylated (human) (UniProt O95619); assay: BLI
[3] = target: GST-tagged GAS41 YEATS (residues 1–148) (human) (UniProt O95619); assay: ITC
[4] = target: full-length GAS41, Avi-tagged, mono-biotinylated (human, UniProt O95619 1-227, biotin (mono-biotinylated on the Avi tag by BirA)); assay: BLI
[5] = target: GST-tagged GAS41 YEATS (residues 1–148) (human, UniProt O95619 1-148); assay: ITC
Sequence of GST-tagged GAS41 YEATS (residues 1–148) (O95619 1-148): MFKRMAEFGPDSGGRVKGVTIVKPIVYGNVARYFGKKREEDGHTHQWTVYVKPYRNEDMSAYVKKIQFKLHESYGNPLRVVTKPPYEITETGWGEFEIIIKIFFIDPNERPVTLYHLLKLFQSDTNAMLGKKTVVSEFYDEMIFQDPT

Sequence of GST-tagged GAS41 YEATS (residues 1–148) (human) (O95619 1-148): as above
Sequence of full-length GAS41, Avi-tagged, mono-biotinylated (human) (O95619 whole entry, the tested form may be a part): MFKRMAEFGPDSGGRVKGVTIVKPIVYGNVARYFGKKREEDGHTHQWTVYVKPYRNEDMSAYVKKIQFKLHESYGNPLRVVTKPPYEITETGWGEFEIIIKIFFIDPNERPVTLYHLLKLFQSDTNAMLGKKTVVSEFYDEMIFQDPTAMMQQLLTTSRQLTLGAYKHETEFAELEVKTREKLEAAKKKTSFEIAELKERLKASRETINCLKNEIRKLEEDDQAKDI
Sequence of GAS41 YEATS domain (residues 13–158), His6-tagged, 15N-labeled (human) (O95619 13-158): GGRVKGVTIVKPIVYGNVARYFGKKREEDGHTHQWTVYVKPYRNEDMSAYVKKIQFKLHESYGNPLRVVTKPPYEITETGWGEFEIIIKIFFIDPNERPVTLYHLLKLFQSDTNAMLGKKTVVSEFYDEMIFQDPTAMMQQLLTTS
Sequence of full-length GAS41, Avi-tagged, mono-biotinylated (O95619 whole entry, the tested form may be a part): as the sequence (O95619 whole entry, the tested form may be a part) above

Molecule	Kd [1]	Kd [2]	Kd [3]	stoichiometry N (peptide : YEATS domain) [3]	also measured
H3 peptide with succinylated K27 (H3K27su)	> 1000 µM				
H3K14ac peptide	720 µM				
H3K18ac peptide	106 µM	36 µM			
H3K18acK27ac peptide		3.2 µM	12.5 µM	0.5	
H3K23crK27cr peptide			11.1 µM	0.5	
H3K27ac peptide	58 µM	81 µM	39 µM	1	
H3K27cr peptide	34 µM		23.4 µM		
tripeptide AKacA	1000 µM				
ATK(Ac)AARK(Ac)SAP [H3K23acK27ac peptide]					Kd [4]: 5 µM; Kd [5]: 13.6 µM
